Measured values as given in patent US20070190045A1, “Anti-CD3 and antigen-specific immunotherapy to treat autoimmunity” (priority 2004, published 2007).
Where two headings read alike, the source gives them in different places.

What was measured:
NOD mice = settings: cited from earlier work
PBMC [1] = assay: Induction of regulatory T cells in vitro with OKT3 then IL-10/IL-2; inhibition of PHA-stimulated PBMC proliferation; type: cell-based, human
From the text: See text in Example 4 for details of the experimental procedure. […] In the left panel of FIG. 10A, responder cells alone were stimulated with PHA and the percentage of proliferating cells was 67%. In the right panel of FIG. 10A, responder cells were stimulated with PHA in the presence of cells treated with anti-CD3 mAb/IL-10/IL-2, and the percentage of proliferating cells was 43%. The number of proliferating responder cells (i.e. diluted CFSE (carboxy-fluorescein diacetate, succinimidyl ester)) in the presence of the added cells is shown. […] In the left panel of FIG. 10B, responder cells alone were stimulated with PHA and the percentage of proliferating cells was 50%. In the right panel of FIG. 10B, responder cells were stimulated with PHA in the presence of IL-10/IL-2 cultured cells, and the percentage of proliferating cells was 54%.
3. Treatment with anti-CD3 mAb induces regulatory T cells in vitro: In order to obtain sufficient numbers of cells for studies of functional properties, anti-CD3 mAb has been utilized to expand regulatory T cells in vitro. PBMC were cultured for 10 days with OKT3 mAb and then CD4+ cells were isolated by sorting. They were then cultured for 19 days with IL-10 and IL-2. These cells were then added to cultures of PBMC from the same individual, stimulated with PHA (phytohemagglutinin). […] The majority (94%) of the CD4+ cells that inhibit PBMC proliferation are CCR4+, 46% are CD62L+, and 93% are CD45RO+. About 5% of the cells are GITR+.

[2] = system: patients with new onset Type 1 diabetes; assay: Phase I/II trial of hOKT3γ1(Ala-Ala) in new onset Type 1 diabetes: C-peptide response to MMTT; type: in vivo, human; settings: patients with new onset T1D
[3] = system: patients with new onset Type 1 diabetes; assay: Side effects of hOKT3γ1(Ala-Ala) in the Phase I/II trial (WHO Criteria); type: in vivo, human
From the text: The dosing regimen was modified from a 14-day to a 12-day course after treatment of the first 12 patients.

CD4+IL-10+ T cells = assay: Induction of CD4+IL-10+ cells in vivo in treated patients (intracellular cytokine staining); set-up: species or system human
From the text: Cells were isolated from patients after treatment with the mAb and stained for intracytoplasmic IL-10 and IFN-γ without further activation ex vivo. IL-10+CD4+ cells were identified in 5/6 patients within 1 week after the last dose of mAb.
2. […] PBMC were harvested and frozen from a patient treated with hOKT3γ1(Ala-Ala) at the conclusion of mAb treatment. These cells, as well as those harvested before mAb treatment were thawed and stained for intracellular cytokines, IL-10 and IFN-γ. Markers were placed around surface molecules CD4 and CD3. Cells harvested from patients after anti-CD3 mAb treatment were producing IL-10 in vivo. […] These induced cells were IFN-γ negative, predominantly CD45RO+, and generally CCR4+. Thirteen percent of these cells produced TGF-β by surface staining.

PBMC [4] = assay: Inhibitory properties of cells grown in hOKT3γ1(Ala-Ala) and IL-10/IL-2 on PHA-stimulated PBMC; type: cell-based, human; settings: 10 days with mAb, sorted, 2 weeks IL-10 and IL-2
Description: Other cells were cultured in IL-10/IL-2 (FIG. 11B), sorted, and then cultured for an addition 19 days in IL-10/IL-2. Both groups of cells were added to fresh PBMC. Uptake of 3H-thymidine was measured 72 hrs after the addition of PHA.
These cells were then cultured for an additional 2 weeks in IL-10 and IL-2 and then added to PBMC from the same donor and stimulated with PHA.

T cells = settings: cited from earlier work
[5] = after OKT3 10 days, IL-10/IL-2 19 days
[6] = Phase I/II trial, 12 or 14-day regimen

rhGAD65: human GAD 65 protein, obtained from Diamyd
anaphylaxis (NOD mice; reports in NOD mice (Liu et al. 2002; Pedotti et al. 2003)): fatal anaphylactic reactions

OKT3 mAb: murine anti-CD3 mAb; in FIG. 10 cells cultured with it, then with IL-10 and IL-2
percentage of proliferating responder cells (PBMC [1]; PHA stimulation in presence of added cultured cells, responder cells alone 67% (FIG. 10A) or 50% (FIG. 10B)): 43% | inhibitory CD4+ cells that are CCR4+ (PBMC [1]; [5]): 94% | inhibitory CD4+ cells that are CD45RO+ (PBMC [1]; [5]): 93% | inhibitory CD4+ cells that are CD62L+ (PBMC [1]; [5]): 46% | inhibitory CD4+ cells that are GITR+ (PBMC [1]; [5]): About 5% | effect of added cultured cells on proliferation of PHA-stimulated CD4+ T cells/PBMC (PBMC [1]; cells added at ratio 1:5): inhibited proliferation

hOKT3γ1(Ala-Ala): humanized anti-CD3 mAb with the same CDR region as OKT3 and a mutation in the Fc portion to reduce FcR binding
duration of functional immunologic tolerance after treatment [2]: at least 1 year | Arthralgia, Mild [3, 6]: 8% | Arthralgia, Moderate [3, 6]: 0 | Arthralgia, Severe [3, 6]: 0 | Diarrhea, Mild [3, 6]: 0 | Diarrhea, Moderate [3, 6]: 0 | Diarrhea, Severe [3, 6]: 0 | Dyspnea, Mild [3, 6]: 8% | Dyspnea, Moderate [3, 6]: 0 | Dyspnea, Severe [3, 6]: 0 | Fever, Mild [3, 6]: 17% | Fever, Moderate [3, 6]: 58% | Fever, Severe [3, 6]: 0 | Headache, Mild [3, 6]: 33% | Headache, Moderate [3, 6]: 0 | Headache, Severe [3, 6]: 0 | Hypotension, Mild [3, 6]: 0 | Hypotension, Moderate [3, 6]: 0 | Hypotension, Severe [3, 6]: 0 | Myalgia, Mild [3, 6]: 17% | Myalgia, Moderate [3, 6]: 0 | Myalgia, Severe [3, 6]: 0 | Nausea, Mild [3, 6]: 8% | Nausea, Moderate [3, 6]: 0 | Nausea, Severe [3, 6]: 0 | Rash, Mild [3, 6]: 58% | Rash, Moderate [3, 6]: 25% | Rash, Severe [3, 6]: 0 | Vomiting, Mild [3, 6]: 8% | Vomiting, Moderate [3, 6]: 0 | Vomiting, Severe [3, 6]: 0 | tolerability ([3]; data from patients with T1DM): well tolerated | induced CD4+IL-10+ cells producing TGF-β by surface staining (CD4+IL-10+ T cells; PBMC at conclusion of mAb treatment): Thirteen | patients in whom IL-10+CD4+ cells were identified (CD4+IL-10+ T cells; within 1 week after the last dose of mAb): 5/6 | effect of CCR4+ cells from cultures on proliferation of PHA-stimulated PBMC (PBMC [4]): inhibited proliferation | cytokine production after activation signal to T cells (T cells; compared with OKT3, Herold et al. 2003): relatively greater production of IL-10 instead of IFN-γ | T cell activation compared with OKT3 (T cells; in vitro or in vivo, Xu et al. 2000): does not cause the same T cell activation

insulin B9-23 peptide: peptide comprising amino acids 9-23 of the insulin B chain (SHLVEALYLVCGERG)
anaphylaxis (NOD mice; mouse, in vivo): anaphylaxis | anaphylaxis (NOD mice; reports in NOD mice (Liu et al. 2002; Pedotti et al. 2003), listed as insulin peptide): fatal anaphylactic reactions
